How the values were obtained:
human CD33 S68A = human CD33 S68A (human, UniProt P20138 18-364); test: alanine scan, flow cytometry;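 further: HEK293-T cells transiently expressing single-residue alanine mutants of CD33 (alanine swapped to serine), antibody binding read by fluorescence in duplicate, background-subtracted, expressed relative to wild-type CD33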
human CD33 V37A = human CD33 V37A (human, UniProt P20138 18-364); test: alanine scan, flow cytometry;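 further: HEK293-T cells transiently expressing single-residue alanine mutants of CD33 (alanine swapped to serine), antibody binding read by fluorescence in duplicate, background-subtracted, expressed relative to wild-type CD33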
human CD33 G64A = human CD33 G64A (human, UniProt P20138 18-364); test: alanine scan, flow cytometry;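 further: HEK293-T cells transiently expressing single-residue alanine mutants of CD33 (alanine swapped to serine), antibody binding read by fluorescence in duplicate, background-subtracted, expressed relative to wild-type CD33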
human CD33 R91A = human CD33 R91A (human, UniProt P20138 18-364); test: alanine scan, flow cytometry;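 further: HEK293-T cells transiently expressing single-residue alanine mutants of CD33 (alanine swapped to serine), antibody binding read by fluorescence in duplicate, background-subtracted, expressed relative to wild-type CD33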
human CD33 Q80A = human CD33 Q80A (human, UniProt P20138 18-364); test: alanine scan, flow cytometry
human CD33 I66A = human CD33 I66A (human, UniProt P20138 18-364); test: alanine scan, flow cytometry
human CD33 Q24A = human CD33 Q24A (human, UniProt P20138 18-364); test: alanine scan, flow cytometry
human CD33 L38A = human CD33 L38A (human, UniProt P20138 18-364); test: alanine scan, flow cytometry
human CD33 D70A = human CD33 D70A (human, UniProt P20138 18-364); test: alanine scan, flow cytometry
human CD33 Y49A = human CD33 Y49A (human, UniProt P20138 18-364); test: alanine scan, flow cytometry
human CD33 F44A = human CD33 F44A (human, UniProt P20138 18-364); test: alanine scan, flow cytometry
[1] = target: human CD33 extracellular region F21Q (human, UniProt P20138 22-259); test: BLI Octet, IgG captured on AHC, CD33 analyte;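 further: CD33 variants and wild type run as analyte at 5, 50 and 500 nM, 700 s association then 1200 s dissociation, buffer-only reference subtracted, global 1:1 fit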
Protocol: (§1) Human CD33 wt and variants, were used as analyte at 3 different concentrations (500, 50 and 5 nM). Association of the analyte to the antibodies was monitored for 700 s and dissociation of the analyte from the antibodies was monitored for 1200 s. Reference subtraction was performed against buffer only wells. AHC tips were regenerated using 10 mM Glycine-HCl pH 1.7. Data were analyzed with Octet Data Analysis software HT 12.0. Data were fitted to a 1:1 binding model. Kinetic rates ka and kd and response signal were globally fitted.

[2] = target: human CD33 extracellular region H45Y (human, UniProt P20138 18-259); test: BLI Octet, IgG captured on AHC, CD33 analyte;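 further: CD33 variants and wild type run as analyte at 5, 50 and 500 nM, 700 s association then 1200 s dissociation, buffer-only reference subtracted, global 1:1 fit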
Protocol: as §1

[3] = target: human CD33 extracellular region N20D (human, UniProt P20138 21-259); test: BLI Octet, IgG captured on AHC, CD33 analyte;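 further: CD33 variants and wild type run as analyte at 5, 50 and 500 nM, 700 s association then 1200 s dissociation, buffer-only reference subtracted, global 1:1 fit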
Protocol: as §1

[4] = target: human CD33 extracellular region P48D (human, UniProt P20138 18-259); test: BLI Octet, IgG captured on AHC, CD33 analyte;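 further: CD33 variants and wild type run as analyte at 5, 50 and 500 nM, 700 s association then 1200 s dissociation, buffer-only reference subtracted, global 1:1 fit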
Protocol: as §1

[5] = target: human CD33 extracellular region Y50H (human, UniProt P20138 18-259); test: BLI Octet, IgG captured on AHC, CD33 analyte
Protocol: as §1

[6] = target: human CD33 extracellular region N20H (human, UniProt P20138 21-259); test: BLI Octet, IgG captured on AHC, CD33 analyte
Protocol: as §1

[7] = target: human CD33 extracellular region F44S (human, UniProt P20138 18-259); test: BLI Octet, IgG captured on AHC, CD33 analyte
Protocol: as §1

[8] = target: human CD33 extracellular region Y50K (human, UniProt P20138 18-259); test: BLI Octet, IgG captured on AHC, CD33 analyte
Protocol: as §1

[9] = target: human CD33 extracellular region N20G (human, UniProt P20138 21-259); test: BLI Octet, IgG captured on AHC, CD33 analyte
Protocol: as §1

[10] = target: human CD33 extracellular region F21N (human, UniProt P20138 22-259); test: BLI Octet, IgG captured on AHC, CD33 analyte
Protocol: as §1

[11] = target: human CD33 extracellular region N20V (human, UniProt P20138 21-259); test: BLI Octet, IgG captured on AHC, CD33 analyte
Protocol: as §1

[12] = target: human CD33 extracellular region W22K (human, UniProt P20138 18-259); test: BLI Octet, IgG captured on AHC, CD33 analyte
Protocol: as §1

[13] = target: human CD33 extracellular region Y50S (human, UniProt P20138 18-259); test: BLI Octet, IgG captured on AHC, CD33 analyte
Protocol: as §1

[14] = target: human CD33 extracellular region W22S (human, UniProt P20138 18-259); test: BLI Octet, IgG captured on AHC, CD33 analyte
Protocol: as §1

[15] = target: human CD33 extracellular region R119A (human, UniProt P20138 18-259); test: BLI Octet, IgG captured on AHC, CD33 analyte
Protocol: as §1

[16] = target: human CD33 extracellular region F21V (human, UniProt P20138 22-259); test: BLI Octet, IgG captured on AHC, CD33 analyte
Protocol: as §1

[17] = target: human CD33 extracellular region W22R (human, UniProt P20138 18-259); test: BLI Octet, IgG captured on AHC, CD33 analyte
Protocol: as §1

[18] = target: human CD33 extracellular region P48S (human, UniProt P20138 18-259); test: BLI Octet, IgG captured on AHC, CD33 analyte
Protocol: as §1

[19] = target: human CD33 extracellular region F43S (human, UniProt P20138 18-259); test: BLI Octet, IgG captured on AHC, CD33 analyte
Protocol: as §1

[20] = target: human CD33 extracellular region N20K (human, UniProt P20138 21-259); test: BLI Octet, IgG captured on AHC, CD33 analyte
Protocol: as §1

[21] = target: T1, human CD33 extracellular region, wild type (human, UniProt P20138 18-259); test: BLI Octet, IgG captured on AHC, CD33 analyte
T1 construct: also called WT; CD33 wt
Protocol: as §1

[22] = target: human CD33 extracellular region N100Q (human, UniProt P20138 18-259); test: BLI Octet, IgG captured on AHC, CD33 analyte
Protocol: as §1

[23] = target: human CD33 extracellular region F21H (human, UniProt P20138 22-259); test: BLI Octet, IgG captured on AHC, CD33 analyte
Protocol: as §1

human CD33 R91A, sequence (P20138 18-364 R91A limits assumed): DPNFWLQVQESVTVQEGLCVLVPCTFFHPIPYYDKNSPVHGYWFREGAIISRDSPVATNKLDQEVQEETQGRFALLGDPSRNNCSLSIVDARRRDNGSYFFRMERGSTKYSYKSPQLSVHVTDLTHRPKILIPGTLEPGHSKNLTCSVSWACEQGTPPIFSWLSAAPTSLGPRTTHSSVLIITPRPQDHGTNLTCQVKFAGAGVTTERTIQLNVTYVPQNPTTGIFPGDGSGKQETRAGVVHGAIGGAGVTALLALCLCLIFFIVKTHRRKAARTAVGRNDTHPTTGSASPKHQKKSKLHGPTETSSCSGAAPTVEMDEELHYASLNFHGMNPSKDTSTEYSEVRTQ
human CD33 I66A, sequence (P20138 18-364 I66A limits assumed): as the sequence (P20138 18-364 R91A limits assumed) above, with I49A, A74R counted along it
human CD33 Q24A, sequence (P20138 18-364 Q24A limits assumed): as the sequence (P20138 18-364 R91A limits assumed) above, with Q7A, A74R counted along it
human CD33 Y49A, sequence (P20138 18-364 Y49A limits assumed): as the sequence (P20138 18-364 R91A limits assumed) above, with Y32A, A74R counted along it
human CD33 L38A, sequence (P20138 18-364 L38A limits assumed): as the sequence (P20138 18-364 R91A limits assumed) above, with L21A, A74R counted along it
human CD33 D70A, sequence (P20138 18-364 D70A limits assumed): as the sequence (P20138 18-364 R91A limits assumed) above, with D53A, A74R counted along it
human CD33 Q80A, sequence (P20138 18-364 Q80A limits assumed): as the sequence (P20138 18-364 R91A limits assumed) above, with Q63A, A74R counted along it
human CD33 V37A, sequence (P20138 18-364 V37A limits assumed): as the sequence (P20138 18-364 R91A limits assumed) above, with V20A, A74R counted along it
human CD33 G64A, sequence (P20138 18-364 G64A limits assumed): as the sequence (P20138 18-364 R91A limits assumed) above, with G47A, A74R counted along it
human CD33 F44A, sequence (P20138 18-364 F44A limits assumed): as the sequence (P20138 18-364 R91A limits assumed) above, with F27A, A74R counted along it
human CD33 S68A, sequence (P20138 18-364 S68A limits assumed): as the sequence (P20138 18-364 R91A limits assumed) above, with S51A, A74R counted along it
human CD33 extracellular region N20V, sequence (P20138 other isoform, or with tags, fused parts or gaps N20V N20V): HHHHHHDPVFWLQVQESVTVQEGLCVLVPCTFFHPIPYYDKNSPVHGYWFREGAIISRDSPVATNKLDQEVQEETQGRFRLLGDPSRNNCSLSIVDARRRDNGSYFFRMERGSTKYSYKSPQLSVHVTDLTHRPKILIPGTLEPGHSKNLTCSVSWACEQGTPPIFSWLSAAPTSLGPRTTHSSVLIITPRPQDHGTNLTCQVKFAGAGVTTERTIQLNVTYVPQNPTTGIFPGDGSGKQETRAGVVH
human CD33 extracellular region Y50K, sequence (P20138 other isoform, or with tags, fused parts or gaps Y50K Y50K): as the sequence (P20138 other isoform, or with tags, fused parts or gaps N20V N20V) above, with V9N, Y39K counted along it
human CD33 extracellular region H45Y, sequence (P20138 other isoform, or with tags, fused parts or gaps H45Y H45Y): as the sequence (P20138 other isoform, or with tags, fused parts or gaps N20V N20V) above, with V9N, H34Y counted along it
human CD33 extracellular region W22K, sequence (P20138 other isoform, or with tags, fused parts or gaps W22K W22K): as the sequence (P20138 other isoform, or with tags, fused parts or gaps N20V N20V) above, with V9N, W11K counted along it

B1: Refmab #3 (antibody, V domains shown)
VH: QVQLVQSGAEVKKPGSSVKVSCKASGYTFTDYNMHWVRQAPGQGLEWIGYIYPYNGGTGYNQKFKSKATITADESTNTAYMELSSLRSEDTAVYYCARGRPAMDYWGQGTLVTVSS
VL: DIQMTQSPSSLSASVGDRVTITCRASESVDNYGISFMNWFQQKPGKAPKLLIYAASNQGSGVPSRFSGSGSGTDFTLTISSLQPDDFATYYCQQSKEVPWTFGQGTKVEIK
notes: Full-length format is human IgG1 Fc silent (PG-LALA); The alanine scan used IgG or Fab
Mean % WT Binding (human CD33 S68A): 115 % WT
Mean % WT Binding (human CD33 V37A): 150 % WT
Mean % WT Binding (human CD33 G64A): 96.6 % WT
Mean % WT Binding (human CD33 R91A): 150 % WT
Mean % WT Binding (human CD33 Q80A): 123 % WT
Mean % WT Binding (human CD33 I66A): 126 % WT
Mean % WT Binding (human CD33 Q24A): 101 % WT
Mean % WT Binding (human CD33 L38A): 192 % WT
Mean % WT Binding (human CD33 D70A): 131 % WT
Mean % WT Binding (human CD33 Y49A): 86.6 % WT

B2: Refmab #2 (antibody, V domains shown)
VH: QVQLVQSGAEVKKPGSSVKVSCKASGGTFSDYAISWVRQAPGQGLEWMGRIIPILGVADYAQKFQGRVTITADKSTRTAYMELSSLRSEDTAVYYCARNWADAFDIWGQGTMVTVSS
VL: DIQLTQSPSSLSASVGDRVTITCRASQGISSVLAWYQQKPGKAPKLLIYDASSLESGVPSRFSGSGSGTDFTLTISSLQPEDFATYYCQQFDSSITFGQGTKLEIK
notes: as for B1
Mean % WT Binding (human CD33 S68A): 112 % WT
Mean % WT Binding (human CD33 V37A): 118 % WT
Mean % WT Binding (human CD33 G64A): 114 % WT
Mean % WT Binding (human CD33 R91A): 119 % WT
Mean % WT Binding (human CD33 F44A): 1.2 % WT
Mean % WT Binding (human CD33 Q80A): 112 % WT
Mean % WT Binding (human CD33 I66A): 118 % WT
Mean % WT Binding (human CD33 Q24A): 103 % WT
Mean % WT Binding (human CD33 L38A): 112 % WT
Mean % WT Binding (human CD33 D70A): 110 % WT
Mean % WT Binding (human CD33 Y49A): 44.2 % WT

B3: Refmab #4 (antibody, V domains shown)
VH: QVQLVQSGAEVKKPGESVKVSCKASGYTFTNYGMNWVKQAPGQGLEWMGWINTYTGEPTYADKFQGRVTMTTDTSTSTAYMEIRNLGGDDTAVYYCARWSWSDGYYVYFDYWGQGTSVTVSS
VL: DIVMTQSPDSLTVSLGERTTINCKSSQSVLDSSTNKNSLAWYQQKPGQPPKLLLSWASTRESGIPDRFSGSGSGTDFTLTIDSPQPEDSATYYCQQSAHFPITFGQGTRLEIK
notes: as for B1
Mean % WT Binding (human CD33 S68A): 90.4 % WT
Mean % WT Binding (human CD33 V37A): 78.7 % WT
Mean % WT Binding (human CD33 G64A): 93.9 % WT
Mean % WT Binding (human CD33 R91A): 100 % WT
Mean % WT Binding (human CD33 F44A): 152 % WT
Mean % WT Binding (human CD33 Q80A): 124 % WT
Mean % WT Binding (human CD33 I66A): 108 % WT
Mean % WT Binding (human CD33 Q24A): 68.3 % WT
Mean % WT Binding (human CD33 L38A): 96.8 % WT
Mean % WT Binding (human CD33 D70A): 82.7 % WT
Mean % WT Binding (human CD33 Y49A): 3.1 % WT

B4: Refmab #1 (antibody, V domains shown)
VH: EVQLVQSGAEVKKPGSSVKVSCKASGYTITDSNIHWVRQAPGQSLEWIGYIYPYNGGTDYNQKFKNRATLTVDNPTNTAYMELSSLRSEDTAFYYCVNGNPWLAYWGQGTLVTVSS
VL: DIQLTQSPSTLSASVGDRVTITCRASESLDNYGIRFLTWFQQKPGKAPKLLMYAASNQGSGVPSRFSGSGSGTEFTLTISSLQPDDFATYYCQQTKEVPWSFGQGTKVEVK
notes: Full-length format is human IgG1 (Absolute Antibody Ab00283-10.0); The alanine scan used IgG or Fab; also called hP67.6
Mean % WT Binding (human CD33 S68A): 91.3 % WT
Mean % WT Binding (human CD33 V37A): 78.7 % WT
Mean % WT Binding (human CD33 G64A): 90.6 % WT
Mean % WT Binding (human CD33 R91A): 82 % WT
Mean % WT Binding (human CD33 F44A): 85.1 % WT
Mean % WT Binding (human CD33 Q80A): 91.6 % WT
Mean % WT Binding (human CD33 I66A): 96.6 % WT
Mean % WT Binding (human CD33 Q24A): 74.1 % WT
Mean % WT Binding (human CD33 L38A): 94.8 % WT
Mean % WT Binding (human CD33 D70A): 81.3 % WT
Mean % WT Binding (human CD33 Y49A): 106 % WT

B5: Refmab #1 (antibody, human IgG1, V domains shown)
VH: B4 VH
VL: B4 VL
notes: also called hP67.6; Absolute Antibody Cat. No. Ab00283-10.0
% WT binding [1]: 0%
% WT binding [2]: 55%
% WT binding [3]: 0%
% WT binding [4]: 71.9%
% WT binding [5]: 104%
% WT binding [6]: 67%
% WT binding [7]: 63.9%
% WT binding [8]: 101%
% WT binding [9]: 0%
% WT binding [10]: 0%
% WT binding [11]: 18.6%
% WT binding [12]: 0%
% WT binding [13]: 75.5%
% WT binding [14]: 45.9%
% WT binding [15]: 121%
% WT binding [16]: 0%
% WT binding [17]: 26.4%
% WT binding [18]: 79.5%
% WT binding [19]: 104%
% WT binding [20]: 0%
% WT binding [21]: 100%
% WT binding [22]: 107%
% WT binding [23]: 0%

From patent publication US20260242735A1 (UNIVERSIT T BASEL, published 2026)
